Here are results for two substances from PMC5904407.

Assay [1] concerns the target Full-length LapA (FL-LapA; residues 1 to 378), minus N-terminal signal sequence (Legionella pneumophila strain 130b). Briefly: crystal structure.
Assay [2] addresses Full-length NttD (FL-NttD; residues 1 to 373), minus N-terminal signal sequence (Legionella pneumophila strain 130b). In words: SEC.

With “Full-length LapA (FL-LapA; residues 1 to 378), minus N-terminal signal sequence (enzyme)”, in assay [1], the stoichiometry N (as a rule, the number of molecules, sites or subunits per partner or assembly) turned out to be 2.
In the case of “Full-length NttD (FL-NttD; residues 1 to 373), minus N-terminal signal sequence (natural protein)”, the stoichiometry N in assay [2] came to 2.
